Assay: soluble on expression in E. coli; label from the status in PepcDB or PDB records

| Sequence | soluble on expression in E. coli |
| --- | --- |
| MSLSENEQFSQMEAKARARMKERGVEVSDIAELVFFLQKKYHPDLTIDECTLNVNRVLAKREVQNAILTGIELDVLAEQKKLSEPLQTMLEIDESLYGVDEVLAFSIVNIYGSIGFTNYGYIDKEKPGILKRLNDKSTGECHTFLDDIVGAISAAASSRLAHRARHTEEGGSHHHHHH | soluble |
| MSLSEVDIAKADPAAASHPLLLNGDATVAQKNPGSVAENNLCSQYEEKVRPCIDLIDSLRALGVEQDLALPAIAVIGDQSSGKSSVLEALSGVALPRGSGIVTRCPLVLKLKKLVNEDKWRGKVSYQDYEIEISDASEVEKEINKAQNAIAGEGMGISHELITLEISSRDVPDLTLIDLPGITRVAVGNQPADIGYKIKTLIKKYIQRQETISLVVVPSNVDIATTEALSMAQEVDPEGDRTIGILTKPDLVDKGTEDKVVDVVRNLVFHLKKGYMIVKCRGQQEIQDQLSLSEALQREKIFFENHPYFRDLLEEGKATVPCLAEKLTSELITHICKSLPLLENQIKETHQRITEELQKYGEGHHHHHH | not soluble |
| MSLSFLKHVQDCNTHDLSNFVRFVIEGRRVGWVRKALAQRLKAHGRVFDVTRDAVLLSASLRTPQSRTRAVADVVDRLADEGVVPAPRGELYRVNQSWGEPTLMLLDRAVVPTFGVRAYGVHLNGYVGAGADLHLWIGRRSPDKSVAPGKLDNMVAGGQPADLSLRQNLIKECAEEADLPEALARQAIPVGAITYCMESPAGIKPDTLFLYDLALPEDFRPHNTDGEMADFMLWPAAKVVEAVRTTEAFKFNVNLTVIDFAIRHGLIDPDNEPDYQEILAGLRGRPRERAASEGHHHHHH | soluble |
| MSLSFSMKIKNIPYYVATRVVKRIQSWLGLNTLGARAIVTNAEGHVLLVKHTYQPHWYLPGGGVKKGESTKAAVIRELHEEVGLVVAEQDVILFGIYHHKYLGVNDYPVIYIVKNFTSHVTHSGEIEQIGWFSLDALPEMVSPGTKRRLGEYFDNNPISEKWEGHHHHHH | soluble |
| MSLSHKSKKLLLVDDDQTVLKLMTEVLTDFGHCVTSVPSARHALNHFTSAGQAFDLLITDICMPGMNGVELIKAVRAHNGTLPIIAISGFSEPEDQNEIAHYDARMLTKPVDFQTLKQTIDALEGHHHHHH | not soluble |
| MSLSIFEHFQARYEAAKDEELSIQDFLALCKENKSAYANAAERLLLAIGEPEMIDTSKHSRLSRIFSNRVIARYKTFEDFYGMEEAIEQIVAYLKHAAQGLEERKQILYLLGPVGGGKSSLAEKLKALMQQMPIYVLSANGQRSPVNDHPFCLFDVNEDGELLKQEYGIDRRYLRSIMSPWAAKRLHEFGGDITKFKVVKVRPSILDQIAVAKTEPGDENNQDISSLVGKVDIRKLEHFSQDDPDAYSYSGALCRANQGLMEFVEMFKAPIKVLHPLLTATQEGNYNGTEGLSALPFDGMILAHSNESEWQTFRNNKNNEAFLDRVYIVKVPYCLRVSEEVKIYQKLLDHSELSKAPCAPSTLDLLAQFSVLSRLKVPENSSLFSKMRVYDGETLKDTDPKAKSYQEYRDYAGVDEGMSGLSTRFAFKILSRVFNFDHSEVAANPVHLFYVIEQQVEREGHHHHHH | not soluble |
| MSLSKKRAGAMKNYGAGDQFKATKALTFTILHNDMPTYPMKRDWLFWKEVTERTGVTLKPTSVPASDYDKKRSLLIGAGDAPLLIPKTYPGQETAFVSSGAILPVSEYVRLMPNFRAKVEKWGLEGDLDSIRQADGNYYVLPGLHEKVKSGYSLSFRTDVLKKHGLDLPTTWDQVYDVLKALKAAYPDVYPFSDRWGQPTPGGALLNYLGPAFGTKAGWSYANTAWDTKARKYVFTGATDEYRQMLEYLRKLVAEKLMDPESFTQSDDDAVRKLLSGKSFVISANPQELVQNYRYNLGKQVKGATIEMIPVPIGPTGEVIVGSRLENGLMVAGRAAEGDSFVAMMQFVDWLWYSDGGQEFAKYGVEGVTYTSSGAGRYKVADGISYMGSDPSAPKDLQKDYGFTNGEFAYGGSWALVSSSFSPDEKAFQDAMAGRKLLPVDPAHPLKADEQEQATLWDTPLKDHVTQNTLKFALGKRPMSEWDAYLAELKAKNMQRYIDLHNTAYERFKKEHEGHHHHHH | soluble |
| MSLSKLGIIGLGKVGTQVLTDVQQLNLFSEIILIDDRADVASGEALDHIHSQGLINTAHIKIRSGVYQDLTDADFIVIAASEATDKNNGDRTLLAQGNHDIIKGIMSQIAEVTQEAVVILISNPVDSMVYFANQIDYPAHKIIGTGTALETSRFKTIIADHYQIDPNNVEAFVIGEHGQHAIPVWSKVHIHGMELSEFEALSDRPAIDKSHISSIINEVSMDVFYQKGWTNAAISKVTSFLIQSIALDQRTITPLTSLSSEYGLEDGAFSLPTLIDKKGIVQRFAITLDKEEERELKEAYEYIRQTIHTAQEGHHHHHH | soluble |
| MSLSKPLYVFDLDDTLIDGDCAMIWNAFLAEKGIATERNFVEEDRRRMALYAQGKMDMAEYIAFAMQPLAQVPSTTVQDWVEECVSRWIVPKQFAQARELIAQLKQQGNTCLIISASVSFLVKTVAQRFGIEHALGIDLVSQNGCYSGNIEGVASYREGKVLRLQQWLAEQNETYHDVHFYTDSINDLPLCQHADFAYVVNPCPRLKAQAEQHGWPILSWAVEGHHHHHH | soluble |
| MSLSKSDDGDSEESFSISVQSGFEAMSQELCIVMCLKDLTSIVDIKTSSRPAMIGSLTDGSTETFWESGDEDKNKTKNITINCVKGINARYVSVHVDNSRDLGNKVTSMTFLTGKAVEELCRIKQVDLDSRHIGWVTSELPGGDNQIIKIELKGPENTLRVRQVKVLGWKDGESTKIAGQISASVAQQRSCEAETLRVFRLITSQVFGKLISGDAEPTPEQEEKALLSSPEGEEKATSDADLKEHMVGIIFSRSKLTNLQKQVCAHIVQAIRMEATRVREEWEHAISSKENANSQPSDEDASSDAYCFELLSMVLALSGSNVGRQYLAQQLTLLQDLFSLLHTASPRVQRQVTSLLRRVLPEVTPNRLASIIGVKSLPPADISDIIHSTEKGDWNKLGILDMFLGCIAKALTVQLKAKGTTITGTAGTTVGKGVTTVTLPMIFNSSYLRRGESHWWMKGSTPTQISEIIIRLIKDMAAGHLSEAWSRVTKNAIAETIIALTKMEEEFRSPVRCIATTRLWLALASLCVLDQDHVDRLSSGRWMGKDGQQKQMPMCDNHDDGETAAIILCNICGNLCTDCDRFLHLHRRTKTHQRQVFKEEEEAIKVDLHEGCGRTKLFWLMALADSKTMKAMVEFREHTGKPTTSSSEACRFCGSRSGTELSAVGSVCSDADCQEYAKIACSKTHPCGHPCGGVRNEEHCLPCLHGCDKSATTLKQDADDMCMICFTEALSAAPAIQLDCSHVFHLQCCRRVLENRWLGPRITFGFISCPICKNKINHIVLKDLLDPIKELYEDVRRKALMRLEYEGLHKSEAITTEGHHHHHH | not soluble |
| MSLSKTLSMLALLPFAAQVFAAPAEFWYSHGGATGSAIADLCRSFNAQREDGDRLHCIRQGSYEQTLQKTVAAYRAGIGPALVEIYDVATPDMLLGGATLPVEAIMAGHQRAYSDDTFLPALRRYYSDDHGALAAQPFAASTAVLYTHRNALAAAGISEPPATWEAFATALRALKKNGHACPVVSEFSPWIWLEQTSAAQGTEVAVRAAGTERYQFDKGAHLRLMNDLAQWTAEGLVVHEDSTRSGQQALAFATDDCAMLIDSTGAWNIVHSTLKSDIDVTALPIYANTQRRTNAPGGSSLWVMRGHAARDYRLVSEFLAFVLQPDNQLVFSARTGYLPVTQAAAARLQSAGREPSAVMVGLAALHDIDGQPSKPLRCGFITLMRLVWSQEMENALAGRQSVEHALRQTTLRANELLSLFQQMHQAQASNESDGATEGHHHHHH | soluble |
| MSLSLDTAREAVQKKPLLYDKGGEEHYNVISAFIKSMRGSDPDGALYWLARMIEAGEDPIFILRRMVILASEDIGNADPRALQVAVTALQGFQLVGMPEGRIIIGQAVTYLATAPKSNASYVGIDAALAEVRKSGALPVPLHIRNAPTRLMKDLGYGTGYRYAHDYAEGYVAQDYLPDQIKGRKYYDPTGHGYEKSIKERMEWLKGKKEGHHHHHH | not soluble |
| MSLSNDGRRQIIESAGRSMAEGYAETLRAIDPTLAINLFSPADEADRLPAPLSSYDGVVVTGSSLHVYRTEPAVTRQIDFLREVFDAGVPVFGSCWGLQLGVVAAGGTVIPNPKRREVPFARSVTLTAAGKTHQMHQSRPAAFDALAIHLDVVSVLPPDSVVTAFNDMAAVQAVEFRSGRSLFWGVQYHPEFELPYMASILRRNASSLVAEAAFSSEGELVEMVDAMDSHGNDGDRVRHPSLLPDDVLDRHTRTIEIANWLKMLSSGEGHHHHHH | not soluble |

Reference: the DeepSol protein solubility set
